Data published in the supplement of paper PMC10567573.
± gives the standard deviation.

Experiment: protein stability index of a GFP-peptide fusion (GPS, HEK-293T) (PSI 1-6); higher = more stable
[1] = treatment: DMSO, c terminus: a fixed tail appended
[2] = treatment: MLN4924 1 uM, 8 h, c terminus: a fixed tail appended
[3] = treatment: DMSO, c terminus: native
[4] = treatment: MLN4924 1 uM, 8 h, c terminus: native
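Also: 24-mer peptide tiles fused after GFP, lentivirally expressed, FACS-sorted into six equal bins by GFP/DsRed ratio, decoded by Illumina sequencing, PSI is the read-weighted mean bin number.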

Sequence	protein stability index [1]	protein stability index [2]	protein stability index [3]	protein stability index [4]
SKCKIIHTDIKPENILMCVDDAYV [SRPK2]	2.39 ± 0.33	2.5 ± 0.17		
LSLLDNNIPGNSTLITAVELERFV [FBXO33]	2.44 ± 0.95	2.36 ± 0.15		
ALVYLPGVIAAIVQLHNGTKYKKF [STEAP1]	2.73 ± 0.44	2.75 ± 0.68		
YSLRILIGDPPHHDHHDEFCLMP [BEX5]			2.62 ± 0.4	2.03 ± 0.35
APLVKTLEKEEEKDLVMYSKCQRL [CDC25B]	4.69 ± 0.42	4.59 ± 0.052		
HYDRNKDGNKDVYLSLLRMYLSPP [VPS39]	2.29 ± 0.14	2.16 ± 0.18		
EEAPAVTAGLKIFEPPAPGEGNSS [TNFSF13B]	5.33 ± 0.23	5.3 ± 0.14		
SCPGSSYRTVVRPTYKVMYKIVTA [EMID1]	2.37 ± 0.53	2.22 ± 0.26		
KFHHSDCLSTWLLHFIATNYLIFS [RHOBTB3]	3.21 ± 0.23	3.05 ± 0.24		
RRYVARLEMRRRCTWSIFQSIEYA [PPEF2]	1.86 ± 0.94	2.26 ± 0.14		
KQLRRQMWWRGCKIKAIMALVAAI [VAMP4]	1.91 ± 0.44	1.92 ± 0.23		
DLQITDQVALLRLTWSELFVLNAA [NR2F2]	2.92 ± 0.58	2.88 ± 0.65		
LMMRMGILGRGLQEYQLPYQRVLP [TCAP]	2.48 ± 0.4	2.28 ± 0.25		
YNSEILEEAISVVMSGKMSVSKAQ [LCOR]	2.96 ± 0.17	3.03 ± 0.41		
WQLYYSKKLLDSWFTSTQEKKHK [JAGN1]			2.28 ± 0.49	2.7 ± 0.29
NITINIVDDHTPWVKGSVPPPLDQ [CLPTM1]	2.83 ± 0.28	2.77 ± 0.34		
KNALEKYGPLKPLPQTPHLEEDLK [MYBL2]	5.16 ± 0.38	5.11 ± 0.2		
GKHITVFKTYISPWERAMGVDPQQ [MYOZ1]	2.33 ± 0.27	2.18 ± 0.46		
KMNGSHRDQGSSALSGVGGIRLPN [IKZF1]	4.1 ± 0.32	3.8 ± 0.12		
IRVVGRGAFGIVHLCLRKADQKLV [NEK8]	3.02 ± 0.59	2.74 ± 0.81		
VNDHLLNFVRERTLDKRWRVRKEA [PDS5B]	2.74 ± 0.44	3.08 ± 0.35		
FLVDMFNDEIEEVRLQSIHTMRKI [INTS4]	2.33 ± 0.13	2.54 ± 0.34		
MMCVAERTYKQRFLFAKLFSHITS [PHTF1]	1.79 ± 0.71	2.24 ± 0.47		

Sequence	protein stability index [1]	protein stability index [2]	protein stability index [3]	protein stability index [4]
AEVVKILQTMLRQSAFLHLPLPEQ [INTS4]	2.75 ± 0.51	2.89 ± 0.22		
KPSVDTEGPALVEIDRSVENTLLN [MIA2]	4.99 ± 0.23	5.07 ± 0.26		
LTRAGMSYYNSPGLHVQHMGTSHG [CCDC6]	2.67 ± 0.2	2.81 ± 0.12		
MKSCKNLKGGLQEVAEQLELERIG [CNOT7]	4.39 ± 0.14	4.47 ± 0.18		
SAGNRTHKARTRPKARKQGVSPAD [ADAMTSL2]	4.75 ± 0.94	5.07 ± 0.8		
DGSYALNGEYTLMPSPTDVVLPGA [ADAMTS4]	4.4 ± 0.2	3.87 ± 0.36		
QLEQPEKMPVLKAEASHYNSDLNN [RHOBTB3]	4.83 ± 0.19	4.94 ± 0.15		
EETHLEETTESQQNGEEGTSTPED [SMARCE1]	5.48 ± 0.29	5.63 ± 0.23		
ENYHKLRRSSSKCIHDHHCGSQLS [NETO1]	3.1 ± 0.27	3.26 ± 0.4		
PGFDSSVYSDLCEAAEAVRPEERK [ADAMTSL2]	5.42 ± 0.19	5.83 ± 0.18		
QSNYDTKGKTAVDTVFRFDPRYNK [KLHL13]	3.49 ± 0.23	4.17 ± 0.22		
ARGTPSPKRMPSGRGGRDRFTAES [FSD1]	4.43 ± 0.3	4.69 ± 0.069		
IVLLEELLPKGSKEEQRDYVFYLA [FIS1]	2.33 ± 0.34	2.16 ± 0.44		
AVDCKWYIRAPPRSKIYLRFLDYE [NETO1]	2.43 ± 0.24	2.19 ± 0.38		
THQHWQQFEPQLTLWDVFGANKEV [RSAD1]	2.65 ± 0.34	2.66 ± 0.24		
ISPETMVALLTGKFSNIVDKFVIV [CDC25B]	2.29 ± 0.51	2.38 ± 0.73		
RFLRAYREGALRAALQRSLAAALA [TRADD]	2.27 ± 0.062	2.32 ± 0.18		
CMPLVCTAIFYTLMTCEMLNRRNG [EDNRA]	3.29 ± 0.24	3.58 ± 0.93		
KLERLKQQNEDLRRMAESLRIPEG [FUT8]	3.87 ± 0.28	4 ± 0.3		
IYRRYRQFHALQSKLEERFGPDSK [NCF4]	2.28 ± 0.23	2.61 ± 0.34		
LLDQIREGAQLKKVEQNSRPVSCS [WASL]	4.852 ± 0.026	4.63 ± 0.24		
SSETPPPPPPPNEINPPPHTMEEE [EIF5]	5.52 ± 0.31	5.46 ± 0.3		
ALGNEGDTFHQDNQPSGLIRTYLG [RHOBTB3]	3.48 ± 0.33	3.85 ± 0.37		

Sequence	protein stability index [1]	protein stability index [2]	protein stability index [3]	protein stability index [4]
STFASLIGPFGGFFASGFKRAFKI [CDS2]	2.21 ± 0.44	2.37 ± 0.38		
FMLEIVTPTSLSSLSNAVANTMEH [FBXO33]	2.77 ± 0.75	2.7 ± 0.55		
DHEDFTGSSSLGFTSSPSPFSSSS [FCHO1]	4.45 ± 0.15	4.37 ± 0.14		
KTSAALSTVGSAISRKLGDMRNSA [TPD52L2]	3.64 ± 0.29	3.7 ± 0.29		
GSDTGASLKLASSELERLIVPNSN [JUNB]	4.31 ± 0.057	4.15 ± 0.17		
KKKGMYRKAITEAANAARHVAPEI [PWWP2B]	4.33 ± 0.045	4.5 ± 0.28		
VIFLLLFAPFIVYYFIMACDQYSC [DHCR7]	2.41 ± 0.19	2.39 ± 0.33		
KWWSDRLALFPLLPKVLQKYWCVT [ZBED1]	2.93 ± 1	2.73 ± 0.61		
AAARCVVLDCRPYLAFAASNVRGS [DUSP5]	2.15 ± 0.55	2.2 ± 0.093		
SAGKRGPDRGSPEYRQRRERNNIA [CEBPD]	4.61 ± 0.2	4.41 ± 0.039		
LFTDRMATRSTTQSNRTSRLIGKK [WEE1]	4.25 ± 0.1	4.4 ± 0.063		
RYWRSLRVMKVEDREGPSSSKLVT [HDAC6]	2.79 ± 0.22	3.07 ± 0.44		
PKQLRLINQPLPDLKNVKSKIGST [MAP2]	3.9 ± 0.1	3.88 ± 0.19		
DLSGRRLRDVNHEKAMAEWVKQQA [SDE2]	4.24 ± 0.2	4.13 ± 0.37		
LKKHGPICQKTATKKRKTFDSSRQ [ZC2HC1A]	4.09 ± 0.26	4.13 ± 0.38		
RDEVRFFKGNKYWAVQGQNVLHGY [MMP1]	2.35 ± 0.22	2.51 ± 0.14		
FRTKFETEQALRLSVEADINGLRR [KRT17]	3.37 ± 0.14	3.38 ± 0.32		
QLKVVERTRTATMLCAASGNPDPE [PTPRD]	5.16 ± 0.26	4.86 ± 0.38		
GFWETIFGNRIKRVKLISNKGTET [PHTF1]	1.6 ± 0.16	2.74 ± 0.053		
GLDSISHDSANCELPLLTPCSKAV [ETS2]	4.47 ± 0.076	4.55 ± 0.28		
LLSIIATVMILPVTHTEISPEQQF [TMEM175]	3.47 ± 0.95	3.02 ± 0.35		
ESNAAQYSPEALASIQNHVRKREA [EFHC1]	4.87 ± 0.24	4.7 ± 0.27		
LLFKDLIKLFACYNDGVINLLEKF [SNAP91]	3.04 ± 0.34	2.81 ± 0.87		

Sequence	protein stability index [1]	protein stability index [2]	protein stability index [3]	protein stability index [4]
VFSQMIHLNETVKAPDIECVLRCS [FEM1B]	2.13 ± 0.36	2.11 ± 0.35		
RHAQTISGHALRILIVDWDVHHGN [HDAC6]	2.18 ± 0.18	2.34 ± 0.4		
KEEAGAPGGGAGMAAGFPYALRAY [CEBPB]	3.06 ± 0.13	3.31 ± 0.15		
GDKCHSLVGKPKIFIIQACRGNQH [CASP6]	2.19 ± 0.3	2.33 ± 0.66		
HDLIFWRDVKKTGFVFGTTLIMLL [RTN3]	2.81 ± 0.37	2.66 ± 0.49		
NEQVLTTEHEKKQKLETDAMFRLE [YJU2B]	5.43 ± 0.15	5.43 ± 0.19		
IEPLVPEEKMETKTESSGIETEPT [EPB41L3]	5.45 ± 0.31	5.46 ± 0.51		
MSDSTWMSADPHLASSLSPSQDER [NOL4L]	5.31 ± 0.19	5.18 ± 0.28		
FFASGFKRAFKIKDFANTIPGHGG [CDS2]	1.95 ± 0.11	2.33 ± 0.2		
LSQLSSHDPLWRRHCKKYWLISEE [FBXO3]	2.54 ± 0.069	2.67 ± 0.4		
GASKAAGVFGFFATIVFATDFYLI [CMTM3]	3.07 ± 0.23	2.88 ± 0.88		
DIFALALTVVCAAGAEPLPRNGDQ [WEE1]	2.77 ± 0.22	2.54 ± 0.61		
KRRRSVTPPEEQQEAEEPKARVLR [CDC25B]	5.32 ± 0.24	5.67 ± 0.21		
ELDSSSSLCVLVSTVGKLCRLINE [CEP70]	3.73 ± 0.53	3.6 ± 0.35		
EERNRFTETREEDVTDEHGEREPF [FAM9B]	5.62 ± 0.17	5.58 ± 0.12		
YEGGHIKGAVNLHMEEEVEDFLLK [CDC25A]	4.6 ± 0.42	4.51 ± 0.076		
AHIALETLEGHQRAIMAHMTVEEI [FLOT1]	3.25 ± 0.29	3.51 ± 0.32		
SVNWRTGSFHGPGHISLRRENSSD [DLC1]	3.78 ± 0.21	3.86 ± 0.2		
DEELHLLIISCRKLFYFKIWAFLD [FBXO39]	2.75 ± 0.52	2.47 ± 0.69		
ETQNAFLNERKQASAIKKEELVAR [CHGB]	3.57 ± 0.12	3.77 ± 0.24		
